Values joined by “and” are separate entries in the source; they are usually repeats but may differ in a detail not shown here. Equal entries are not always repeated.
Experiments:
[1] = biological target: T1, TauC3 (C-terminally truncated tau fragment ending at aspartate 421 of htau40) (human, UniProt P10636 1-738); assay: binding ELISA on coated TauC3, OD650
T1 construct: Generated and purified by Genscript; also called Human TauC3; recombinant TauC3 protein
In short: (§1)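 Chimeric or humanized IgG4κ antibodies were expressed in ExpiCHO cells and tested by binding ELISA against coated TauC3 antigen, which Genscript made and purified. Absorbance was read at 650 nm as the measure of binding. EC50 was calculated from the antibody concentration-response.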

[2] = biological target: T1, TauC3 (C-terminally truncated tau …); assay: binding ELISA on coated TauC3, OD650; remark: listed apart in the source
In short: as §1

[3] = biological target: T1, TauC3 (C-terminally truncated tau …); assay: binding ELISA on coated TauC3, OD650; remark: listed apart in the source
In short: as §1

[4] = biological target: T1, TauC3 (C-terminally truncated tau …); assay: binding ELISA on coated TauC3, OD650; remark: listed apart in the source
In short: as §1

[5] = biological target: T2, full length Tau (2N4R, htau40) (human, UniProt P10636 1-758); assay: binding ELISA on coated FL Tau, OD650
T2 construct: Generated and purified by Genscript; also called FL Tau; FLT
T2 sequence (P10636 other isoform, or with tags, fused parts or gaps limits assumed): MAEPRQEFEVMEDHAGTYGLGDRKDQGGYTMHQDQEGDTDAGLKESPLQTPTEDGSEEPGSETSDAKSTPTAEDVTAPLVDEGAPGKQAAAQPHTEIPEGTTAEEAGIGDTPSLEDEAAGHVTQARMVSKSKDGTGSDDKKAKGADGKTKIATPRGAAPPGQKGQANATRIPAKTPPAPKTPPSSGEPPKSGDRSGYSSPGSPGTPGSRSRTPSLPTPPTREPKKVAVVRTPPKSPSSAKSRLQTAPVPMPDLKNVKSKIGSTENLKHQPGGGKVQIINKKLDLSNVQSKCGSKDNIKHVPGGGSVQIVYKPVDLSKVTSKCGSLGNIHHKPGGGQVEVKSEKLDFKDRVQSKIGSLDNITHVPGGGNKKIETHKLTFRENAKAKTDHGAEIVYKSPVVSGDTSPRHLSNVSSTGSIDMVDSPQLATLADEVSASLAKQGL
In short: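 Binding ELISA on coated full-length tau antigen, which was made and purified by Genscript. Antibody binding was read as absorbance at 650 nm.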

[6] = biological target: T1, TauC3 (C-terminally truncated tau …); assay: binding ELISA on coated TauC3, OD650; remark: listed apart in the source
In short: as §1

[7] = biological target: T1, TauC3 (C-terminally truncated tau …); assay: SPR (Biacore) kinetics, TauC3 amine-coupled on CM5, 1:1 global fit
In short: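 Surface plasmon resonance (Biacore) was used with purified TauC3 immobilised on a CM5 chip by amine coupling. A concentration series of each purified antibody was injected over the chip. Association rate, dissociation rate and Kd were obtained by a 1:1 global fit.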

[8] = biological target: T1, TauC3 (C-terminally truncated tau …); assay: binding ELISA on coated TauC3, OD650; right table (HM variants)
In short: as §1

[9] = biological target: T1, TauC3 (C-terminally truncated tau …); assay: binding ELISA on coated TauC3, OD650; remark: listed apart in the source
In short: as §1

[10] = biological target: T1, TauC3 (C-terminally truncated tau …); assay: Biacore kinetics, TauC3 amine-coupled on CM5, antibody series, 1:1 global fit
From the text: (§2) To determine the affinity of the binding interactions, a biacore kinetic assay was developed which involved immobilizing TauC3 on a CM5 chip via amine coupling and injecting a concentration series of the respective antibody over it.

[11] = biological target: T1, TauC3 (C-terminally truncated tau …); assay: binding ELISA on coated TauC3, OD650; remark: listed apart in the source
In short: as §1

[12] = biological target: T1, TauC3 (C-terminally truncated tau …); assay: binding ELISA on TauC3 after 21 days at 37 C in PBS or mouse, human, cynomolgus serum, with non-incubated control
Protocol: Purified samples of the chimeric and humanized antibodies were incubated in mouse, human and cynomolgus serum for 21 days. The binding of the Tau01 HMKE, HMKM, HMKN, HMKO, HMKP candidate antibodies which had been incubated in the 3 different serums were compared with an antibody incubated in PBS and a 4° C. positive control sample by binding ELISA to TauC3 (FIG. 37). The Tau01 HMKE, HMKM, HMKN, HMKO, HMKP candidate antibodies retained their binding capability after being incubated in mouse, human and cynomolgus serum.

[13] = biological target: T1, TauC3 (C-terminally truncated tau …); assay: Biacore off-rate ranking, TauC3 amine-coupled on CM5, one antibody concentration; one-phase exponential decay fit
Protocol: (§3) To further evaluate the binding data observed on the Octet, an off-rate ranking experiment was performed on the Biacore 200 instrument. Biacore offers greater selectivity than the Octet and facilitated the immobilization of TauC3 onto a CM5 chip via amine coupling which stabilizes the antigen. This produces higher quality data with stable baselines and good reproducible responses. Once TauC3 is immobilized, one concentration (5 nM) of antibody is added, followed by a dissociation and regeneration step (Section 8.20). The off-rates were fitted using a two-phase decay model (FIG. 25B) or a one phase decay fitting only the second off-rate (FIG. 25A). The candidates were then ranked based on the off-rates obtained using the fits and compared. The data agreed with the Octet results (albeit with a different ranking order), highlighting Tau01 HMKM, HMKO, HMKP, HMKN and HMKE as the humanized variants with the slowest off-rates. The lack of binding of FL Tau to chimeric and a humanized candidate was also confirmed by Biacore by loading the antibody onto a Protein G chip and adding 250 nM FL Tau.

[14] = biological target: T1, TauC3 (C-terminally truncated tau …); assay: binding ELISA on coated TauC3, OD650; left table (HC variants)
In short: as §1

[15] = biological target: T1, TauC3 (C-terminally truncated tau …); assay: binding ELISA on coated TauC3, OD650; remark: listed apart in the source
In short: as §1

[16] = biological target: T1, TauC3 (C-terminally truncated tau …); assay: Biacore off-rate ranking, TauC3 amine-coupled on CM5, one antibody concentration; two-phase decay fit, slow phase; set-up: unit not given here
Protocol: as §3

[17] = biological target: T1, TauC3 (C-terminally truncated tau …); assay: binding ELISA, TauC3 coated
In short: as §1

[18] = biological target: T2, full length Tau (2N4R, htau40); assay: Biacore, antibody captured on Protein G chip, FL Tau injected [Fig. 26B]
Protocol: as §3

[19] = biological target: T1, TauC3 (C-terminally truncated tau …); assay: SPR (Biacore) kinetics, TauC3 amine-coupled on CM5, antibody as analyte
From the text: as §2

[20] = biological target: T2, full length Tau (2N4R, htau40); assay: Octet, antibody on Protein G sensor, FL Tau in solution
Protocol: The TauC3 and FL Tau antigens were generated and purified by Genscript and supplied at a concentration of 2.54 mg/ml or 0.24 mg/ml respectively. Binding of the chimeric antibody to TauC3 and FL Tau was assayed by binding ELISA. […] No non-specific binding to either antigen could be observed with an isotype confirming the binding observed is specific. Binding of the mouse and chimeric Tau01 antibodies to purified TauC3, was measured using Bio-Layer Interferometry (OctetRed96, ForteBio Section 8.12). The mouse and chimeric antibodies were assayed against a concentration series from 20 nM-0.31 nM TauC3 (FIGS. 8A and B). Both the mouse and chimeric antibodies were capable of binding to TauC3 in a concentration-dependent manner. The binding of the mouse and chimeric antibodies was also tested against FL Tau but low signals or no binding was observed (FIGS. 8C and D) confirming the binding of the antibodies is specific to TauC3.

T1 sequence (P10636 other isoform, or with tags, fused parts or gaps): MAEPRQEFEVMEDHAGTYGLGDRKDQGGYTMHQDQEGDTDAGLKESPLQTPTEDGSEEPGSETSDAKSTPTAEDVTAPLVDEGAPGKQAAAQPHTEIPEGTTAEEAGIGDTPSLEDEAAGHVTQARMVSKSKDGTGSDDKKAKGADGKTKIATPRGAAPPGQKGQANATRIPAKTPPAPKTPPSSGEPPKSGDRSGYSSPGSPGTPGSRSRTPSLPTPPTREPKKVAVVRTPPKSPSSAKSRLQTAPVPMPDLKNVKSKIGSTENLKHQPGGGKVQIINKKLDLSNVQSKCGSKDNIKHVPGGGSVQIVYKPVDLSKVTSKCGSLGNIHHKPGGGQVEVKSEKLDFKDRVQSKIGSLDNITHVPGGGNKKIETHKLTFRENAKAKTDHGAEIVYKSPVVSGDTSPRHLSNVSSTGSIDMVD

B1: MoTau01 HuG4K chimeric antibody (antibody, V domains shown)
VH: EVQVVESGGGLVQPKGSLKLSCAASGFTFNTYAMNWVRQAPGKGLEWVARIRSKSNNYATYYADSVKDRFTISRDDSQSMVYLQMNNLKTEDTAMYYCVGGGDFWGQGTALTVSS
VL: DIQMTQSPSSLSASLGERVSLTCRASQEISVYLSWFQQKPDGTIKRLIYGAFTLDSGVPKRFSGSRSGSDYSLTISSLESEDFADYYCLQYVRYPWTFGGGTKLEIK
notes: Mouse variable regions with human IgG4 / kappa constant regions (pHuG4, pHuK); also called chimeric Tau01
Binder B1 has an EC50 [1] of 0.474 nM, an EC50 [2] of 0.474 nM and an EC50 [3] of 0.724 nM. For the same binder, the EC50 [4] was 0.724 nM, the binding result [5] was “no binding (tested: about 30 nM)” and the EC50 [6] was 0.58 nM and 0.54 nM and 0.63 nM. For the same binder, the Kd [7] was 0.057 nM, the koff [7] was 0.000741 s⁻¹ and the kon [7] was 1.29e+07 M⁻¹ s⁻¹. For the same binder, the EC50 [8] was 0.438 nM and 0.483 nM and 0.538 nM and 0.73 nM, the EC50 [9] was 0.71 nM and the Kd [10] was 0.0574 nM. For the same binder, the EC50 [11] was 0.298 nM and 0.313 nM, the “EC50 (read off the curve)” value [12] was ~0.5 nM and the koff [13] was 0.000414 s⁻¹. The EC50 [14] was 0.438 nM and 0.483 nM and 0.538 nM and 0.73 nM, the EC50 [15] was 0.474 nM and the Kslow [16] was 0.000414. For the same binder, the EC50 [17] was 0.7 nM and 0.65 nM.

B2: Tau01 HCKB HuG4K (antibody, V domains shown)
VH: LVQLVESGGGLVQPGGSLKLSCAASGFTFNTYAMNWVRQASGKGLEWVGRIRSKSNNYATYYAASVKGRFTISRDDSKSMAYLQMDSLKTEDTAVYYCVGGGDFWGQGTLVTVSS
VL: DIQMTQSPSSLSASVGDRVTITCRASQEISVYLSWFQQKPGKAIKRLIYGAFTLQSGVPSRFSGSRSGSEYTLTISSLQPEDFATYYCLQYVRYPWTFGGGTKVEIK
notes: human IgG4 kappa (HuG4K)
With B2 the binding result [18] was “no binding”, the EC50 [1] was 0.502 nM and the Kd [19] was 1.2 nM. It also gave an EC50 [2] of 0.502 nM, an EC50 [4] of 0.628 nM and an EC50 [6] of 0.84 nM. The EC50 [8] was 0.73 nM, the Kd [10] was 1.24 nM and the koff [10] was 0.0249 s⁻¹. The kon [10] was 2.02e+07 M⁻¹ s⁻¹, the koff [13] was 0.0114 s⁻¹ and the EC50 [14] was 0.73 nM. For the same binder, the EC50 [15] was 0.502 nM and the Kslow [16] was 0.012.

B3: MoTau01 mouse antibody (antibody, V domains shown)
VH: EVQVVESGGGLVQPKGSLKLSCAASGFTFNTYAMNWVRQAPGKGLEWVARIRSKSNNYATYYADSVKDRFTISRDDSQSMVYLQMNNLKTEDTAMYYCVGGGDFWGQGTALTVSS
VL: DIQMTQSPSSLSASLGERVSLTCRASQEISVYLSWFQQKPDGTIKRLIYGAFTLDSGVPKRFSGSRSGSDYSLTISSLESEDFADYYCLQYVRYPWTFGGGTKLEIK
notes: Mouse hybridoma antibody; also called mouse Tau01; murine Tau01
B3: no binding (tested: not printed on the sheet) [20].

Source: patent publication US20220064272A1 (TAUC3 BIOLOGICS, published 2022)
